Reference: patent US20210395346A1 (SEOUL NATIONAL UNIVERSITY R AND DB FOUNDATION, published 2021)

Legend:
[1] = molecular target: T1, recombinant SARS-CoV-2 RBD protein (wild-type) (SARS-CoV-2; human, UniProt P0DTC2 306-543); experiment: ELISA (FIG. 18A)
T1 construct: range 306-543

[2] = molecular target: T1, recombinant SARS-CoV-2 RBD protein …; experiment: ELISA (FIG. 18C)
[3] = molecular target: T1, recombinant SARS-CoV-2 RBD protein …; experiment: ELISA (FIG. 18E)
[4] = molecular target: T1, recombinant SARS-CoV-2 RBD protein …; experiment: ELISA (FIG. 18B)

B1: A-1H4 antibody (format in FIG. 18 not stated) (antibody, V domains shown)
VH: EVQLVESGGGLVQPGRSLRLSCAASGFTVSSNYMSWVRQAPGKGLEWVSGIYSGGSTYYADSVKGRFTISRDNSKNTLYLQMNSLRAEDTAVYYCARDLQEAGAFDIWGQGTMVTVSS
VL: ELQLTQSPSFLSASVGDRVTITCRASQGISSYLAWYQQKPGKAPKLLIYAASTLQSGVPSRFSGSGSGTEFTLTISSLQPEDFATYYCQQLNSYPRLTFGGGTKVEIK
Question: Does B1 bind [1]?
Answer: binds

B2: A-2H4 antibody (format in FIG. 18 not stated) (antibody, V domains shown)
VH: QMQLVESGGGLVQPGRSLRLSCAASGFTFSVYGMHWVRQAPGKGLEWVAVISYDGSNKYYADSVKGRFSISRDNSKNTLYLQMNSLRGEDTAVYYCAKGGPRPVVKAYGELDYYGMDVWGQGTTVTVSS
VL: ELALTQPASVSGSPGQSITISCTGTSSDIGGYEYVSWYQQHPGKAPKLIIYDVRDRPSGISNRFSGSKSGNTASLIISSLQAGDEADYYCFSYTSSGTYVFGSATKVTVL
Question: Does B2 bind [2]?
Answer: binds

B3: E-3G9 antibody (format in FIG. 18 not stated) (antibody, V domains shown)
VH: QMQLVQSGAEVKKPGASVKVSCKASGHTITSYYMHWVRQAPGQGLEWMGIINPSGGSTSYAQKFQGRVTMTRDTSTSTVYMELSSLRSEDTAVYYCAREGVWDSSGYSSFDYWGQGTLVTVSS
VL: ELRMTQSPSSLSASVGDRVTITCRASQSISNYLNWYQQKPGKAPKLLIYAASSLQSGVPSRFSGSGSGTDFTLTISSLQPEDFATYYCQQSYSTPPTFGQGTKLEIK
Question: Does B3 bind [3]?
Answer: binds

B4: A-2F1 antibody (format in FIG. 18 not stated) (antibody, V domains shown)
VH: QVQLVQSGGGLIQPGGSLRLSCAASGVTVSSNYMSWVRQAPGKGLEWVSVIYSGGSTFYADSVKGRFTISRDNSKNTLYLQMNSLRAEDTAVYYCARDLMEAGGMDVWGQGSTVTVSS
VL: ELALTQPPSASGSPGQSVTISCTASSSDIGASNHVAWYQQNPGKAPKLMIYGVSGRPSGVPDRFSGSKSGNTASLTVSGLQAEDEADYYCSSYAGSNILIFGGGTKLTVL
Question: Does B4 bind [4]?
Answer: binds
